Our source for the reduction of binding in 10 mM DTT against no DTT (orders of magnitude), tighter binding against the linear Ser-Ser sequence (orders of magnitude) and fold increase of affinity, biotin-modified against unmodified phage values is patent US20050048548A1.

The target of assay [1] is streptavidin (Prozyme) (UniProt P22629). The assay is described as follows: phage ELISA on plate-coated streptavidin, anti-M13-HRP detection.
The target is the same in assay [2]. The assay can be described thus: phage ELISA on plate-coated streptavidin, both with and without 10 mM DTT; reference: Ser-Ser phage. (An ELISA detects its analyte on a solid surface through an enzyme-linked reagent.)
The target in assay [3] is MBP-BirA fusion (E. coli biotin ligase / biotin holoenzyme synthetase with N-terminal maltose binding protein) (E. coli) [MBP: P0AEX9]. The assay can be described thus: phage ELISA on plate-coated MBP-BirA, anti-M13-HRP detection; reference: same phage unmodified.

Chain of streptavidin (Prozyme) (P22629 37-163 limits assumed): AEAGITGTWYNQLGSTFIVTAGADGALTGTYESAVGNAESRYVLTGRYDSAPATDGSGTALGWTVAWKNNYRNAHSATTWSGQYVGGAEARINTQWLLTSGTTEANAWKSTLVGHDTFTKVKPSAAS

In turn, “M13 phage displaying the disulfide constrained sequence Cys-HPQGPP-Cys (peptide)” gave a reduction of binding in 10 mM DTT against no DTT (orders of magnitude) in assay [1] of more than 2.

In turn, “M13 phage displaying the selenosulfide constrained sequence Cys-HPQGPT-Sec (peptide)” gave a tighter binding against the linear Ser-Ser sequence (orders of magnitude) in assay [2] of 2.

In assay [3], “biotin-modified M13 phage clone displaying CLQPSecYGS (peptide)” registered a fold increase of affinity, biotin-modified against unmodified phage of 5 fold.

For “biotin-modified M13 phage clone displaying VPKQSecCQN (peptide)”, the fold increase of affinity, biotin-modified against unmodified phage in assay [3] was 5 fold.

Substance “biotin-modified M13 phage clone displaying VTAKSecCYP (peptide)” displayed a fold increase of affinity, biotin-modified against unmodified phage in assay [3] of 5 fold.
